1 molecule from paper PMC5534098, “Modulation of chromatin structure by the FACT histone chaperone complex regulates HIV-1 integration” (Retrovirology, 2017) can be followed below.

This assay has as its target T1, FACT (FAcilitates Chromatin Transcription) complex, recombinant purified (human | , UniProt Q9Y5B9 1-1047; Q08945 1-709).
T1 construct: also called FACT complex; source: recombinant, purified as reported before [17, 18]
Kind of assay: pull-down. As to conditions: both partners purified.

T1 sequence (Q9Y5B9 whole entry, chain 1 of 2): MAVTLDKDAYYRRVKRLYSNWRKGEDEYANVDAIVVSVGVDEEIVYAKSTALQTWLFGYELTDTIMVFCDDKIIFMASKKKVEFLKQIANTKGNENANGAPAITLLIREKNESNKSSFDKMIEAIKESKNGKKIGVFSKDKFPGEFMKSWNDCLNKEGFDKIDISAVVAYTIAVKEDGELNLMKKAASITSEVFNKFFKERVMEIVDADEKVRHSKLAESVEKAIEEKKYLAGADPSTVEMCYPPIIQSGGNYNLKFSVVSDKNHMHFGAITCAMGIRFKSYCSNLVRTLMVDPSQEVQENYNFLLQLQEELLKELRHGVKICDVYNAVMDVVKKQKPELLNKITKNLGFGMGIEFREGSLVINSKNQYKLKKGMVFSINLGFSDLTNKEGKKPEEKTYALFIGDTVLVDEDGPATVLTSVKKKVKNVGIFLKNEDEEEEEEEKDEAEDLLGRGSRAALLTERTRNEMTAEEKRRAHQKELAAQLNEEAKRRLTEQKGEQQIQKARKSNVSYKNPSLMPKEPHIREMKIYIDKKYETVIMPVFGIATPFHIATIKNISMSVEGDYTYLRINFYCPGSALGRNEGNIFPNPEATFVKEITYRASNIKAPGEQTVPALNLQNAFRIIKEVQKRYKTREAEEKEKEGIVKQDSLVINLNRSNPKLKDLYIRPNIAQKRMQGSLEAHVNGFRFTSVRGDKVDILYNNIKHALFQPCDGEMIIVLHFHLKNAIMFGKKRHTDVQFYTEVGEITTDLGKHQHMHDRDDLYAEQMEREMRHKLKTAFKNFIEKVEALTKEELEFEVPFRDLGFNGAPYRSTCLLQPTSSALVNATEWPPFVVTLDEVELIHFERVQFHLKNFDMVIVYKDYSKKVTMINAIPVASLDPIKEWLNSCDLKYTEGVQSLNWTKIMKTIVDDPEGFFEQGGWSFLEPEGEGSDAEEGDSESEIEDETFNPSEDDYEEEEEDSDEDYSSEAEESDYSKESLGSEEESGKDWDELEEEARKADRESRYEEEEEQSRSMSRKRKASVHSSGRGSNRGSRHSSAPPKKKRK
T1 sequence (Q08945 whole entry, chain 2 of 2): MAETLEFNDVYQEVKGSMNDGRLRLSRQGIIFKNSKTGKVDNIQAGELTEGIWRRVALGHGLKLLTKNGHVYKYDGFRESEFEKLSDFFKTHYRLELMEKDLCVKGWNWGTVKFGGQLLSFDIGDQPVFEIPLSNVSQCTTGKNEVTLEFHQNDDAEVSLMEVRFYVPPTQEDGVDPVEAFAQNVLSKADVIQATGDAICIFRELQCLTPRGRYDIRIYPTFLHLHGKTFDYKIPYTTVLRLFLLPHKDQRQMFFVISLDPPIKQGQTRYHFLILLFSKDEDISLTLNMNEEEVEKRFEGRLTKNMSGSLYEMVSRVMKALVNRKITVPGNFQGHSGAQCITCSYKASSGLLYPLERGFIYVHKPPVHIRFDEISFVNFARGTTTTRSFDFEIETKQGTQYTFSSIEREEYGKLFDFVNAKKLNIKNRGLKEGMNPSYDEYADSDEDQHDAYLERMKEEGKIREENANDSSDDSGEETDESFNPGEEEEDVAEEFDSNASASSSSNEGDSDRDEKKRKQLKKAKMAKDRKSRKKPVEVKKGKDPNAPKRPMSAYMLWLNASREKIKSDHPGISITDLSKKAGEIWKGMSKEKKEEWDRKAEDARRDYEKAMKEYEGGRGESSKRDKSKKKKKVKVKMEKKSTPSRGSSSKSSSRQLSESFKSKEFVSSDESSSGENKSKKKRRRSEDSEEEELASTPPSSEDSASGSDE

B1: LEDGF/p75-GST (natural protein)
chain: not shown
Regarding B1, the binding result was “binds”.
